From paper PMC4239648

Biological target: HsiC2Δ1–30, bacterial two-hybrid fusion (P. aeruginosa PAO1)
Assay: two-hybrid; bacterial two-hybrid (BTH): T25 and T18 fusions of B. pertussis adenylate cyclase co-transformed in E. coli DHM1; spots on MacConkey maltose and X-gal LB agar, 30 °C, at least 48 h; β-galactosidase activity in Miller units

“ClpV2, full length, bacterial two-hybrid fusion (enzyme)” gave a fold reduction of binding against full-length HsiC2 of 10 fold.
